Assay results as given in the supplement of paper PMC7877785.
± gives the uncertainty stated by the source.

Test: self-splicing fitness, log relative to wild type (ln ratio); higher = more splicing; Tetrahymena group I intron in knt gene, E. coli kanamycin selection, DiMSum; sequences stand for … in CUCUCU…GGAGGGAAAAGUUAUCAGGCAUGCACCUGGUAGCUAGUCUUUAAACCAAUAGAUUGCAUCGGUUUAAAAGGCAAGACCGUCAAAUUGCGGGAAAGGGGUCAACAGCCGUUCAGUACCAAGUCUCAGGGGAAACUUUGAGAUGGCCUUGCAAAGGGUAUGGUAAUAAGCUGACGGACAUGGUCCUAACCACGCAGCCAAGUCCUAAGUCAACAGAUCUUCUGUUGAUAUGGAUGCAGUUCACAGACUAAAUGUCGGUCGGGGAAGAUGUAUUCUUCUCAUAAGAUAUAGUCGGACCUCUCCUUAAUGGGAGCUAGCGGAUGAAGUGAUGCAACACUGGAGCCGCUGGGAACUAAUUUGUAUGCGAAAGUAUAUUGAUUAGUUUUGGAGUACUCGUGGUCG
In short: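 The eight P1ex-region nucleotides of an intron in the knt kanamycin-resistance gene on pET-22b(+) were all randomised and the library put into E. coli BL21(DE3). Six replicate transformations were grown overnight at 37°C or 30°C on LB agar with or without 25 μg/mL kanamycin, together with 100 μg/mL carbenicillin, 50 μM IPTG and 0.2% rhamnose. Colonies were pooled and amplicon-sequenced on an Illumina HiSeq 2500. Fitness from DiMSum is the error-weighted combination of wild-type-normalised replicate fold changes, kanamycin over none.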

AGAAAGCAAUAUUACGCCCA
self-splicing fitness (ln) (30 °C): 0.247 ± 0.12
self-splicing fitness (ln) (37 °C): 0.167 ± 0.2

AGAAAGCAAUAUUACGCCCG
self-splicing fitness (ln) (30 °C): -0.679 ± 0.19
self-splicing fitness (ln) (37 °C): -0.0334 ± 0.19

AGAAAGCAAUAUUACGCCGA
self-splicing fitness (ln) (30 °C): -1.29 ± 0.15
self-splicing fitness (ln) (37 °C): -0.795 ± 0.15

AGAAAGCAAUAUUACGCUAC
self-splicing fitness (ln) (30 °C): -3.25 ± 0.39

AGAAAGCAAUAUUACGGAGA
self-splicing fitness (ln) (30 °C): -3 ± 0.22
self-splicing fitness (ln) (37 °C): -2.79 ± 0.23

AGAAAGCAAUAUUACGGCAA
self-splicing fitness (ln) (30 °C): 0.0585 ± 0.1
self-splicing fitness (ln) (37 °C): -0.187 ± 0.12

AGAAAGCAAUAUUACGGCCU
self-splicing fitness (ln) (30 °C): 0.484 ± 0.11
self-splicing fitness (ln) (37 °C): 0.212 ± 0.12

AGAAAGCAAUAUUACGGCUG
self-splicing fitness (ln) (30 °C): -0.141 ± 0.11
self-splicing fitness (ln) (37 °C): -0.414 ± 0.16

AGAAAGCAAUAUUACGGGAG
self-splicing fitness (ln) (30 °C): -2.56 ± 0.097
self-splicing fitness (ln) (37 °C): -1.97 ± 0.12

AGAAAGCAAUAUUACGGGCA
self-splicing fitness (ln) (30 °C): -0.6 ± 0.14
self-splicing fitness (ln) (37 °C): -0.0746 ± 0.12

AGAAAGCAAUAUUACGGGUA
self-splicing fitness (ln) (30 °C): -1.32 ± 0.092
self-splicing fitness (ln) (37 °C): -1.01 ± 0.095

AGAAAGCAAUAUUACGGUGA
self-splicing fitness (ln) (30 °C): -0.65 ± 0.12
self-splicing fitness (ln) (37 °C): -0.655 ± 0.14

AGAAAGCAAUAUUACGGUGC
self-splicing fitness (ln) (30 °C): -2.39 ± 0.15
self-splicing fitness (ln) (37 °C): -2.6 ± 0.31

AGAAAGCAAUAUUACGUAGG
self-splicing fitness (ln) (30 °C): -2.89 ± 0.14
self-splicing fitness (ln) (37 °C): -2.16 ± 0.15

AGAAAGCAAUAUUACGUAUA
self-splicing fitness (ln) (30 °C): -2.13 ± 0.12
self-splicing fitness (ln) (37 °C): -1.66 ± 0.13

AGAAAGCAAUAUUACGUCCU
self-splicing fitness (ln) (30 °C): -0.0571 ± 0.065
self-splicing fitness (ln) (37 °C): 0.432 ± 0.089

AGAAAGCAAUAUUACGUCGG
self-splicing fitness (ln) (30 °C): -1.37 ± 0.088
self-splicing fitness (ln) (37 °C): -1.04 ± 0.11

AGAAAGCAAUAUUACGUGAG
self-splicing fitness (ln) (30 °C): -1.39 ± 0.065
self-splicing fitness (ln) (37 °C): -0.952 ± 0.099

AGAAAGCAAUAUUACGUGCU
self-splicing fitness (ln) (30 °C): -0.713 ± 0.063
self-splicing fitness (ln) (37 °C): -1.28 ± 0.092

AGAAAGCAAUAUUACGUGUC
self-splicing fitness (ln) (30 °C): -4.33 ± 0.31
self-splicing fitness (ln) (37 °C): -1.67 ± 0.18

AGAAAGCAAUAUUACGUUAA
self-splicing fitness (ln) (30 °C): -2.23 ± 0.14
self-splicing fitness (ln) (37 °C): -1.44 ± 0.17

AGAAAGCAAUAUUACGUUAU
self-splicing fitness (ln) (30 °C): -2.29 ± 0.099
self-splicing fitness (ln) (37 °C): -1.58 ± 0.13

AGACAGCAAUAUUACGAACU
self-splicing fitness (ln) (30 °C): -0.675 ± 0.076
self-splicing fitness (ln) (37 °C): 0.326 ± 0.096

AGACAGCAAUAUUACGACAG
self-splicing fitness (ln) (30 °C): -3.42 ± 0.14
self-splicing fitness (ln) (37 °C): -0.41 ± 0.12

AGACAGCAAUAUUACGACCC
self-splicing fitness (ln) (30 °C): -0.868 ± 0.29
self-splicing fitness (ln) (37 °C): -0.564 ± 0.3

AGACAGCAAUAUUACGACUU
self-splicing fitness (ln) (30 °C): -0.384 ± 0.074
self-splicing fitness (ln) (37 °C): 0.347 ± 0.099

AGACAGCAAUAUUACGAGCU
self-splicing fitness (ln) (30 °C): -1.22 ± 0.085
self-splicing fitness (ln) (37 °C): -1.15 ± 0.11

AGACAGCAAUAUUACGAGUG
self-splicing fitness (ln) (30 °C): -4.11 ± 0.16
self-splicing fitness (ln) (37 °C): -1.9 ± 0.092

AGACAGCAAUAUUACGAUAC
self-splicing fitness (ln) (30 °C): -2.64 ± 0.27
self-splicing fitness (ln) (37 °C): -1.79 ± 0.25

AGACAGCAAUAUUACGCCGC
self-splicing fitness (ln) (37 °C): -1.62 ± 0.38

AGACAGCAAUAUUACGCCUC
self-splicing fitness (ln) (30 °C): -4.48 ± 0.36
self-splicing fitness (ln) (37 °C): -2.08 ± 0.21

AGACAGCAAUAUUACGCUCG
self-splicing fitness (ln) (30 °C): -0.153 ± 0.076
self-splicing fitness (ln) (37 °C): 0.136 ± 0.089

AGACAGCAAUAUUACGGAGA
self-splicing fitness (ln) (30 °C): -3.65 ± 0.18
self-splicing fitness (ln) (37 °C): -2.55 ± 0.29

AGACAGCAAUAUUACGGAUC
self-splicing fitness (ln) (30 °C): -3.16 ± 0.2
self-splicing fitness (ln) (37 °C): -0.56 ± 0.17
